The results in this text go back to patent US20180194847A1 (SEOUL NATIONAL UNIVERSITY R AND DB FOUNDATION, published 2018).

The assay has as its target T1, recombinant human CD154 protein (human, UniProt P29965 47-261, limits assumed).
T1 construct: This protein was immobilised on the SPR chip; also called human CD154 antigen
T1 sequence: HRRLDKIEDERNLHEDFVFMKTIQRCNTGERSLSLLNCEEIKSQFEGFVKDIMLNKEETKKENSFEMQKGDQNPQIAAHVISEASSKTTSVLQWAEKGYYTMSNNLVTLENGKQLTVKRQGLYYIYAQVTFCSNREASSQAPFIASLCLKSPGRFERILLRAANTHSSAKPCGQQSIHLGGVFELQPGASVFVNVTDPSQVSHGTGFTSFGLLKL
In words: SPR (Reichert SR7500DC), CD154 immobilised on chip, antibody in flow. As for the experimental part:
The binding affinity KD of each of the RD-05 mouse antibody and IgG4 and IgG4 (L115E) RD-05 chimeric antibodies, produced as described above, for human CD154 antigen, was measured using an SPR method by Woojung BSC, Inc. (Suwon, Gyeonggi-do, Korea). Specifically, 17.5 μg/ml of recombinant human CD154 protein in immobilization buffer (10 mM sodium acetate, pH 6.0) was attached to a CMDH gold chip (Cat#13206066, Reichert Technologies, Depew, N.Y., USA) at a density of 2300 RU (resonance unit; 1 RU=1 pg/mm² surface area), after which 3.125 μg/ml of bovine serum albumin was attached at a density of 650 RU. The RD-05 antibody was diluted in PBS at […], 1.25, 2.5, 5, 10, 20, 40, 80, 160, 320, 2560 and 5120 nM. […] Based on the determined values, the KD values were calculated.

B1: RD-05 mouse antibody (antibody, V domains shown)
VH: DVQLQESGPGLVKPSQSLSLTCTVTGYSITSDYAWNWIRQFPGNKLEWMGYITYSGTTSYNPSLKSRISLTRDTSKNQFFLQLNAVTTEDTATYYCARSPYYGPWYFDVWGAGTTVTVSS
VL: DIVLTQSPASLTVSLGQRATISCKASQSVDYDGDSYLHWYQQKPGQPPKLLIYAASYLESGIPARFSGSGSGTDFTLNIHPVEEEDAATYYCQQSNEDPNTFGGGTKLEIKR
notes: Mouse monoclonal antibody from the hybridoma, kappa light chain; also called mouse RD-05 antibody; anti-human CD154 antibody
For B1, the Kd is 37 nM.

One may read the Kd as the free concentration of one partner at which half of the binding sites on the other are occupied at equilibrium, for simple one-to-one binding.
